Experimental data as given in patent US20190187132A1.
Like-named read-outs stand apart in the source and are kept apart here.

B1: Anti-[TRISP][18H1] (antibody, V domains shown)
VH: QVQLKESGPGLVQPSQTLSLTCTVSGLSLTSNSVGWIRQPPGKGLEWMGIIWSNGGTDYNSAIKSRLSISRDTSKSQVFLKMHSLQTEDTAMYFCARGPYYGSYRLGYFDYWGQGVMVTVSS
VL: DVVMTQSPSSLAVSAGETVTLNCQSSQSLLYSGTQNNYLAWYQQKPGQSPKLLISWASTRQSGVPLRFIGSGSGTDFTLTITSVQAEDLAIYYCQQFYDTPLTFGSGTKLEIK
B2: Anti-[TRISP][C9] (antibody, V domains shown)
VH: AVTLDESGGGLQTPGGALSLVCKASGFSISSYSMQWVRQAPGKGLEWVAGIYYDGNTWYAPAVKGRATISRDNGQSTVRLRLNNLRAEDTATYFCAKYAGGYSIDAWGHGTEVIVSS
VL: ALTQPSSVSANPGETVKITCSGSSGSYGWYQQKSPGSGPVTVIYYNDKRPSDIPSRFSGSASGSTATLTITGVQAEDEAVYFCGGYDSSTYVGIFGAGTTLTVL

What was measured:
[1] = biological target: Trichinella spiralis lysate
[2] = biological target: Trichinella spiralis lysate; remark: listed apart in the source
[3] = biological target: Trichinella spiralis E/S antigen

Binder	detection limit [1] [µg/mL]	detection limit [2] [ng/mL]	detection limit [3] [ng/mL]
B1	10	1	–
B2	–	–	6
